Reference: patent US20220025373, “COMPOSITIONS AND METHODS RELATED TO NUCLEIC ACID ANTICOAGULANTS” (North Carolina State University, published 2022)

B1: 2HF-RNA-1N2N (ssRNA)
RNA: GGGAGAUCGAGCGACUUCCGACGGGAACAAAGCUGAAGUACUUACCCGUCGGGAGUCGGGCUAGUCAUCUUCGGAUGAUUAGCCGCUGGUGAAGCCUCCACGCCAGCCUCGGUCUCCCGCAGUAGGAUCGGACUGAAGGAGGCACGGUCCCAGCCGAAGUGUCUGGCGGUCGAUCACACAGUUCAAACGUAAUAAGCCAAUGUACGAGGCAGACGACUCGCCAGGCACUUUGGCUGCUAGACUGGCUGGCUUCGGCCAGCUAGUUUAGGAUUCUAUUGC
modifications: 2'-F at all C and U
B2: 2HF-RNA-NNNN (ssRNA)
RNA: GGGAGAUCGAGCGACUUCCGACUUCGGUCGGGAGUCGGGCUAGUCAUCUUCGGAUGAUUAGCCGCUGGUGAAGCCUCCACGCCAGCCUCGGUCUCCCGCAGUAGGAUCGGACUGAAGGAGGCACGGUCCCAGCCGAAGUGUCUUGCUUCGGCAAGGCACUUUGGCUGCUAGACUGGCUGGCUUCGGCCAGCUAGUUUAGGAUUCUAUUGC
modifications: 2'-F at all C and U
B3: 2HF-RNA-2NN1 (ssRNA)
RNA: GGGAGAUCGAGCGACUUCCGACUUCGGUCGGGAGUCGGGCUAGUCAUCUUCGGAUGAUUAGCCGCUGGUGAAGCCUCCACGCCAGCCUCGGUCUCCCGCAGUAGGAUCGGACUGAAGGAGGCACGGUCCCAGCCGAAGUGUCUUGCGGGAACAAAGCUGAAGUACUUACCCGCAAGGCACUUUGGCUGCUAGACUGGCUGGCGGCGGUCGAUCACACAGUUCAAACGUAAUAAGCCAAUGUACGAGGCAGACGACUCGCCGCCAGCUAGUUUAGGAUUCUAUUGC
modifications: 2'-F at all C and U
B4: Fss12 (ssRNA)
RNA: GGGAACAAAGCUGAAGUACUUACCCACCUUACCACUCCACCUCACUCACCUAUUACGGCGGUCGAUCACACAGUUCAAACGUAAUAAGCCAAUGUACGAGGCAGACGACUCGCC
modifications: 2'-F at all C and U
B5: 2HF-RNA-12NN (ssRNA)
RNA: GGGAGAUCGAGCGACUUCCGACUUCGGUCGGGAGUCGGGCUAGUCAUCGGGAACAAAGCUGAAGUACUUACCCGAUGAUUAGCCGCUGGUGAAGCCUCCACGCCAGCCUCGGUCUCCCGCAGUAGGAUCGGACUGAAGGAGGCACGGUCCCAGCCGAAGUGUCUGGCGGUCGAUCACACAGUUCAAACGUAAUAAGCCAAUGUACGAGGCAGACGACUCGCCAGGCACUUUGGCUGCUAGACUGGCUGGCUUCGGCCAGCUAGUUUAGGAUUCUAUUGC
modifications: 2'-F at all C and U

Experiments:
Factor IXa [1] = target: T1, Factor IXa (UniProt P00740;P00740 P00740:47-191,P00740:227-461); assay: EMSA; 37 C 1 h
T1 sequence (P00740 47-191, chain 1 of 2): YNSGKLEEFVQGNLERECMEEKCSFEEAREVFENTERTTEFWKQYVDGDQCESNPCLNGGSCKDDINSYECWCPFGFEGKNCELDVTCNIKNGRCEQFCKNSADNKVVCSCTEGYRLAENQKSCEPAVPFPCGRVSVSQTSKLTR
T1 sequence (P00740 227-461, chain 2 of 2): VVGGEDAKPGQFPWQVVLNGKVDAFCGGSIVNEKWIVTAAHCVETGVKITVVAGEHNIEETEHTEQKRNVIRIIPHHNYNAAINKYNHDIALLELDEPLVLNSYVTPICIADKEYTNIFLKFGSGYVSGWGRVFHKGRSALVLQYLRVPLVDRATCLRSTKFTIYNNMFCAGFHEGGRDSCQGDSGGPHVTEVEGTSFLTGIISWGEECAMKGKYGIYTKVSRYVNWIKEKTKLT
Experimental: (§1) Specificity tests of the Th-RNA origami with two proteins (Factor IXa and Xa) involved in the coagulation cascade and one common protein (bovine serum albumin, BSA) were performed. To test specificity, the RNA origami was incubated with protein at 37° C. for one hour and characterized by native acrylamide gel electrophoresis. The non-aptamer presenting on RNA origami (2HF-RNA-NNNN) was not able to bind to all four proteins (FIG. 25). All seven designs of RNA origami with RNA thrombin aptamers (2HF-RNA-12NN, 1N2N, 2NN1, Fss12, 2HF-2211, 3HF-2NN1, and 4HF-2NN1) show the specificity binding with thrombin as results shown in FIGS. 26-28 and FIGS. 42-45).
(§2) For specificity tests, heat-annealed RNA origami or DNA weave tile (5 pmol) was dissolved in 1× annealing buffer and incubated with protein (25 pmol) at 37° C. for 1 hr. The samples were tested by 6% native acrylamide gel electrophoresis in 1×TBE as running buffer at 150 V for 3 hr. The gels were stained with Ethidium bromide for nucleic acid staining and visualized under a UV lamp. Then, the gels were further stained with Coomassie blue for protein staining and imaged with the ProteinSimple instrument.

[2] = target: T2, Bovine serum albumin (BSA) (Bos taurus, UniProt P02769 P02769:25-607); assay: EMSA; 37 C 1 h
T2 sequence (P02769 25-607, one chain of several): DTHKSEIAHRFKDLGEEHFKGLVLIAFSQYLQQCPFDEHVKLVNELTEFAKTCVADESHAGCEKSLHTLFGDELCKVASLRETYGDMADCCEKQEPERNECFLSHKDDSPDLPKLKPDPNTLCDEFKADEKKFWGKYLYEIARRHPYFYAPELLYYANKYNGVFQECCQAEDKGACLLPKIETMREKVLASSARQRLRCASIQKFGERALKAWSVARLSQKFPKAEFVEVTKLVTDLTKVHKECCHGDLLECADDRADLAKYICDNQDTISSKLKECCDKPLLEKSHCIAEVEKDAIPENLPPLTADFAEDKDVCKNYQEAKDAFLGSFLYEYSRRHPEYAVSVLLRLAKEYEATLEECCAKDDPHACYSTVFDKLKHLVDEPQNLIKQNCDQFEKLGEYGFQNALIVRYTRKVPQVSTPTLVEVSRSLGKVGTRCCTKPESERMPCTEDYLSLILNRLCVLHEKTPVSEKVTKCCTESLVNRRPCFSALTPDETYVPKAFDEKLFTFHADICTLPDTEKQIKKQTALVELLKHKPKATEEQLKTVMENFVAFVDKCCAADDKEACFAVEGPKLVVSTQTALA
Experimental: as §1, §2

Factor Xa [3] = target: T3, Factor Xa (UniProt P00742;P00742 P00742:41-179,P00742:235-488); assay: EMSA; 37 C 1 h
T3 sequence (P00742 41-179, chain 1 of 2): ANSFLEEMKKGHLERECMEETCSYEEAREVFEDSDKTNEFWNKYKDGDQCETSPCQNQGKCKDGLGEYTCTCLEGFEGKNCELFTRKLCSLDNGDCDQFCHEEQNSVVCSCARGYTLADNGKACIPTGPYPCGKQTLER
T3 sequence (P00742 235-488, chain 2 of 2): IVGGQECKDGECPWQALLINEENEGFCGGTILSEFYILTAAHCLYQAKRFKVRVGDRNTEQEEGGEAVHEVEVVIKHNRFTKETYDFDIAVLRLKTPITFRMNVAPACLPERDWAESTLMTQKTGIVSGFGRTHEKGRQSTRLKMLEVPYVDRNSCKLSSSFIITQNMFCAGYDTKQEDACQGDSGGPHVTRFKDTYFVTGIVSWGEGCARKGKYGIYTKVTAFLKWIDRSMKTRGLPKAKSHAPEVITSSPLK
Experimental: as §1, §2

Thrombin [4] = target: T4, Thrombin (UniProt P00734;P00734 P00734:328-363,P00734:364-622); assay: EMSA; 5 pmol RNA + 25 pmol protein, 37 C 1 h
Thrombin [5] = target: T4, Thrombin; assay: EMSA; 5 pmol RNA + 25 pmol protein, 1x annealing buffer, 37 C 1 h, 6% native PAGE
Factor IXa [6] = target: T1, Factor IXa; assay: EMSA; 5 pmol RNA + 25 pmol protein, 37 C 1 h; details: 2-helix RNA origami with tetraloops and 180 degree kissing loop, no aptamer
Experimental: as §1, §2

[7] = target: T2, Bovine serum albumin (BSA); assay: EMSA; 5 pmol RNA + 25 pmol protein, 37 C 1 h; details: 2-helix RNA origami with tetraloops and 180 degree kissing loop, no aptamer
Experimental: as §1, §2

Factor Xa [8] = target: T3, Factor Xa; assay: EMSA; 5 pmol RNA + 25 pmol protein, 37 C 1 h; details: 2-helix RNA origami with tetraloops and 180 degree kissing loop, no aptamer
Experimental: as §1, §2

[9] = 2-helix RNA origami with exosite 1 and exosite 2 aptamers
[10] = two aptamers (exosite 2 and exosite 1) joined by 31 nt single-stranded linker
[11] = 2-helix RNA origami with exosite 1 aptamer (RNAR9D-14T) and exosite 2 aptamer (Toggle-25t)

Binder | binding result (Factor IXa [1]; [9]) | binding result [2, 9] | binding result (Factor Xa [3]; [9]) | binding result (Thrombin [4]) | also measured
B1 | no binding | no binding | no binding | binds | 
B2 |  |  |  |  | binding result (Thrombin [5]): no binding; binding result (Factor IXa [6]): no binding; binding result [7]: no binding; binding result (Factor Xa [8]): no binding
B3 | no binding | no binding | no binding | binds | 
B4 |  |  |  | binds | binding result (Factor IXa [1]; [10]): no binding; binding result [2, 10]: no binding; binding result (Factor Xa [3]; [10]): no binding
B5 |  |  |  | binds | binding result (Factor IXa [1]; [11]): no binding; binding result [2, 11]: no binding; binding result (Factor Xa [3]; [11]): no binding
